Test system: Escherichia coli TOP10
Assay: shrunken log2 fold change of peptide-encoding DNA abundance (4.5 h post-induction vs induction); higher = less antimicrobial activity (less host growth inhibition)
Conditions: time post-induction: 4.5 h; library: site-saturation at positions 5, 18, 19, 20
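Further: peptides expressed intracellularly from a pBAD plasmid library in pooled LB shake-flask culture, induced with 0.3% L-arabinose, DNA abundance read by NGS, three biological replicates, DESeq2 with apeglm shrinkage.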

In the case of RRIRFRPPRLPRPRPRPIFVPRP, the “shrunken log2 fold change” value is reported as 0.108.

With RRIRQRPPRLPRPRPRPMNGPRP the “shrunken log2 fold change” value was -0.0825.

In the case of RRIRYRPPRLPRPRPRPTMNPRP, the “shrunken log2 fold change” value is reported as -0.446.

RRIRNRPPRLPRPRPRPSKEPRP was tested, and the “shrunken log2 fold change” value was -0.0243.

For RRIRGRPPRLPRPRPRPHWKPRP, the “shrunken log2 fold change” value was 0.184.

In the case of RRIRNRPPRLPRPRPRPKKAPRP, the “shrunken log2 fold change” value is reported as -0.0485.

For RRIRQRPPRLPRPRPRPQILPRP, the “shrunken log2 fold change” value was -0.132.

In the case of RRIRARPPRLPRPRPRPDFNPRP, the “shrunken log2 fold change” value is reported as 0.0591.

RRIRTRPPRLPRPRPRPKEGPRP was tested, and the “shrunken log2 fold change” value was -0.0199.

With RRIRQRPPRLPRPRPRPVWLPRP the “shrunken log2 fold change” value was 0.2.

RRIRSRPPRLPRPRPRPCHSPRP was tested, and the “shrunken log2 fold change” value was 0.00316.

In the case of RRIRWRPPRLPRPRPRPEHAPRP, the “shrunken log2 fold change” value is reported as 0.921.

For RRIRMRPPRLPRPRPRPDCFPRP, the “shrunken log2 fold change” value was 0.0619.

In the case of RRIRYRPPRLPRPRPRPCAHPRP, the “shrunken log2 fold change” value is reported as -0.0966.

RRIRPRPPRLPRPRPRPMKKPRP was tested, and the “shrunken log2 fold change” value was -0.0723.

In the case of RRIRDRPPRLPRPRPRPDKLPRP, the “shrunken log2 fold change” value is reported as -0.0536.

RRIRWRPPRLPRPRPRPNTDPRP was tested, and the “shrunken log2 fold change” value was -0.262.

For RRIRFRPPRLPRPRPRPAKPPRP, the “shrunken log2 fold change” value was 0.901.

For RRIRFRPPRLPRPRPRPAEAPRP, the “shrunken log2 fold change” value was 0.254.

In the case of RRIRKRPPRLPRPRPRPQTKPRP, the “shrunken log2 fold change” value is reported as 0.069.

For RRIRTRPPRLPRPRPRPETWPRP, the “shrunken log2 fold change” value was -0.0622.

For RRIRCRPPRLPRPRPRPDDWPRP, the “shrunken log2 fold change” value was 0.104.

In the case of RRIRGRPPRLPRPRPRPSVWPRP, the “shrunken log2 fold change” value is reported as 0.622.

In the case of RRIRDRPPRLPRPRPRPVIAPRP, the “shrunken log2 fold change” value is reported as 0.224.

For RRIRGRPPRLPRPRPRPAPHPRP, the “shrunken log2 fold change” value was 0.95.

For RRIRSRPPRLPRPRPRPKMSPRP, the “shrunken log2 fold change” value was -0.105.

For RRIRHRPPRLPRPRPRPIKIPRP, the “shrunken log2 fold change” value was -0.62.

With RRIRMRPPRLPRPRPRPEKPPRP the “shrunken log2 fold change” value was 1.34.

For RRIRFRPPRLPRPRPRPSGGPRP, the “shrunken log2 fold change” value was -0.103.

RRIRVRPPRLPRPRPRPISDPRP was tested, and the “shrunken log2 fold change” value was -0.0883.

RRIRERPPRLPRPRPRPPVWPRP was tested, and the “shrunken log2 fold change” value was 0.634.

RRIRHRPPRLPRPRPRPTAWPRP was tested, and the “shrunken log2 fold change” value was 0.0946.

In the case of RRIRYRPPRLPRPRPRPSTLPRP, the “shrunken log2 fold change” value is reported as -0.853.

RRIRPRPPRLPRPRPRPHICPRP was tested, and the “shrunken log2 fold change” value was -0.0442.

For RRIRIRPPRLPRPRPRPFSTPRP, the “shrunken log2 fold change” value was -0.38.

With RRIRNRPPRLPRPRPRPNITPRP the “shrunken log2 fold change” value was -0.693.

In the case of RRIRYRPPRLPRPRPRPVIYPRP, the “shrunken log2 fold change” value is reported as -0.0529.

RRIRHRPPRLPRPRPRPLFRPRP was tested, and the “shrunken log2 fold change” value was 0.0546.

In the case of RRIRVRPPRLPRPRPRPIFGPRP, the “shrunken log2 fold change” value is reported as -0.015.

RRIRNRPPRLPRPRPRPDPVPRP was tested, and the “shrunken log2 fold change” value was -0.137.

For RRIRLRPPRLPRPRPRPDMAPRP, the “shrunken log2 fold change” value was 0.0097.

In the case of RRIRKRPPRLPRPRPRPFHEPRP, the “shrunken log2 fold change” value is reported as -0.154.

RRIRPRPPRLPRPRPRPRPTPRP was tested, and the “shrunken log2 fold change” value was 0.869.

In the case of RRIRGRPPRLPRPRPRPVRVPRP, the “shrunken log2 fold change” value is reported as 0.856.

In the case of RRIRIRPPRLPRPRPRPNNPPRP, the “shrunken log2 fold change” value is reported as -0.471.

In the case of RRIRMRPPRLPRPRPRPTFNPRP, the “shrunken log2 fold change” value is reported as -0.283.

With RRIRYRPPRLPRPRPRPDKLPRP the “shrunken log2 fold change” value was -0.0621.

RRIRCRPPRLPRPRPRPASDPRP was tested, and the “shrunken log2 fold change” value was -0.0092.

With RRIRCRPPRLPRPRPRPHGGPRP the “shrunken log2 fold change” value was -0.154.

RRIRPRPPRLPRPRPRPPCTPRP was tested, and the “shrunken log2 fold change” value was 0.00476.

For RRIRARPPRLPRPRPRPVGDPRP, the “shrunken log2 fold change” value was 0.515.

In the case of RRIRCRPPRLPRPRPRPQFIPRP, the “shrunken log2 fold change” value is reported as -0.866.

With RRIRGRPPRLPRPRPRPLWYPRP the “shrunken log2 fold change” value was 0.298.

In the case of RRIRSRPPRLPRPRPRPEVMPRP, the “shrunken log2 fold change” value is reported as 0.104.

For RRIRRRPPRLPRPRPRPENSPRP, the “shrunken log2 fold change” value was 0.118.

In the case of RRIRHRPPRLPRPRPRPVMGPRP, the “shrunken log2 fold change” value is reported as 0.0268.

For RRIRKRPPRLPRPRPRPTCHPRP, the “shrunken log2 fold change” value was 0.169.

With RRIRMRPPRLPRPRPRPHVMPRP the “shrunken log2 fold change” value was -0.192.

RRIRARPPRLPRPRPRPRQDPRP was tested, and the “shrunken log2 fold change” value was 0.34.

For RRIRLRPPRLPRPRPRPEKIPRP, the “shrunken log2 fold change” value was -0.223.

With RRIRYRPPRLPRPRPRPRTTPRP the “shrunken log2 fold change” value was -0.011.

With RRIRVRPPRLPRPRPRPEAWPRP the “shrunken log2 fold change” value was 0.181.

For RRIRFRPPRLPRPRPRPLRRPRP, the “shrunken log2 fold change” value was 0.773.

With RRIRIRPPRLPRPRPRPCLIPRP the “shrunken log2 fold change” value was -0.337.

With RRIRYRPPRLPRPRPRPSHQPRP the “shrunken log2 fold change” value was -0.594.

With RRIRERPPRLPRPRPRPNHGPRP the “shrunken log2 fold change” value was -0.348.

For RRIRTRPPRLPRPRPRPSFLPRP, the “shrunken log2 fold change” value was -0.586.

With RRIRLRPPRLPRPRPRPGRNPRP the “shrunken log2 fold change” value was -0.0488.

In the case of RRIRARPPRLPRPRPRPCCKPRP, the “shrunken log2 fold change” value is reported as -0.12.

RRIRTRPPRLPRPRPRPGRFPRP was tested, and the “shrunken log2 fold change” value was -0.0311.

RRIRGRPPRLPRPRPRPKWSPRP was tested, and the “shrunken log2 fold change” value was 0.564.

With RRIRRRPPRLPRPRPRPVVYPRP the “shrunken log2 fold change” value was 0.152.

With RRIRLRPPRLPRPRPRPSGNPRP the “shrunken log2 fold change” value was -0.111.

In the case of RRIRARPPRLPRPRPRPMDCPRP, the “shrunken log2 fold change” value is reported as 0.181.

RRIRGRPPRLPRPRPRPYHIPRP was tested, and the “shrunken log2 fold change” value was 0.158.

RRIRVRPPRLPRPRPRPNDLPRP was tested, and the “shrunken log2 fold change” value was -0.31.

For RRIRSRPPRLPRPRPRPDVKPRP, the “shrunken log2 fold change” value was -0.0928.

With RRIRVRPPRLPRPRPRPCWQPRP the “shrunken log2 fold change” value was -0.0523.

With RRIRLRPPRLPRPRPRPKVSPRP the “shrunken log2 fold change” value was 0.0482.

For RRIRHRPPRLPRPRPRPEFHPRP, the “shrunken log2 fold change” value was -0.0718.

In the case of RRIRHRPPRLPRPRPRPDHFPRP, the “shrunken log2 fold change” value is reported as -0.169.

RRIRTRPPRLPRPRPRPMERPRP was tested, and the “shrunken log2 fold change” value was 0.0039.

For RRIRVRPPRLPRPRPRPRKSPRP, the “shrunken log2 fold change” value was 0.337.

With RRIRTRPPRLPRPRPRPADSPRP the “shrunken log2 fold change” value was 0.0603.

For RRIRWRPPRLPRPRPRPDIKPRP, the “shrunken log2 fold change” value was -0.323.

RRIRSRPPRLPRPRPRPEEEPRP was tested, and the “shrunken log2 fold change” value was 1.47.

RRIRIRPPRLPRPRPRPKGWPRP was tested, and the “shrunken log2 fold change” value was 0.364.

RRIRCRPPRLPRPRPRPLDIPRP was tested, and the “shrunken log2 fold change” value was -0.422.

RRIRHRPPRLPRPRPRPWGNPRP was tested, and the “shrunken log2 fold change” value was -0.0654.

For RRIRHRPPRLPRPRPRPPMYPRP, the “shrunken log2 fold change” value was -0.739.

For RRIRNRPPRLPRPRPRPRKTPRP, the “shrunken log2 fold change” value was -0.0384.

— the supplement of paper PMC9112550, “Optimization of the antimicrobial peptide Bac7 by deep mutational scanning” (BMC Biology, 2022)
